The data set has as its system Escherichia coli TOP10. Description: shrunken log2 fold change of peptide-encoding DNA abundance (4.5 h post-induction vs induction); higher = less antimicrobial activity (less host growth inhibition). Conditions: time post-induction: 4.5 h; library: site-saturation at positions 5, 18, 19, 20.
Regarding RRIRWRPPRLPRPRPRPGATPRP, the “shrunken log2 fold change” value was found to be 1.02. The result for RRIRRRPPRLPRPRPRPWNEPRP reads -0.208; that for RRIRMRPPRLPRPRPRPGMGPRP, 0.902; that for RRIRIRPPRLPRPRPRPFQPPRP, -0.407. For RRIRLRPPRLPRPRPRPLWFPRP, the “shrunken log2 fold change” value was -0.543. The result for RRIRKRPPRLPRPRPRPCVIPRP reads 0.0227. Take RRIRVRPPRLPRPRPRPAIKPRP: the “shrunken log2 fold change” value is -0.202. The result for RRIRWRPPRLPRPRPRPDLPPRP reads 0.0222; that for RRIRVRPPRLPRPRPRPGQWPRP, 0.0407.

Turning to RRIRPRPPRLPRPRPRPFPPPRP, the “shrunken log2 fold change” value was -0.0227.

Take RRIRARPPRLPRPRPRPRHSPRP: the “shrunken log2 fold change” value is -0.00589. As for RRIRVRPPRLPRPRPRPYRAPRP, the “shrunken log2 fold change” value is -0.201. The result for RRIRSRPPRLPRPRPRPFHGPRP reads -0.00545; that for RRIRYRPPRLPRPRPRPWACPRP, -0.263; that for RRIRYRPPRLPRPRPRPVSLPRP, -0.267. To RRIRSRPPRLPRPRPRPNRDPRP belongs -0.233. Consider RRIRARPPRLPRPRPRPMMRPRP, for which the “shrunken log2 fold change” value worked out at 1.22.

In the case of RRIRHRPPRLPRPRPRPVSTPRP, the “shrunken log2 fold change” value was -0.263. The result for RRIRLRPPRLPRPRPRPHEGPRP reads -0.00992; that for RRIRQRPPRLPRPRPRPWTEPRP, 0.0355; that for RRIRSRPPRLPRPRPRPWKHPRP, -0.0883. The result for RRIRVRPPRLPRPRPRPCIQPRP reads -0.00992; that for RRIRHRPPRLPRPRPRPHIEPRP, 0.032. To RRIRTRPPRLPRPRPRPFGEPRP belongs -0.101; to RRIRGRPPRLPRPRPRPPWIPRP, 0.256; to RRIRFRPPRLPRPRPRPFVSPRP, -0.296.

On to RRIRMRPPRLPRPRPRPDTAPRP, for which the “shrunken log2 fold change” value turned out to be 1.24.

For RRIRVRPPRLPRPRPRPASTPRP, the “shrunken log2 fold change” value is -0.311. The result for RRIRNRPPRLPRPRPRPMGTPRP reads -0.0967; that for RRIRARPPRLPRPRPRPLREPRP, 1.16; that for RRIRARPPRLPRPRPRPNKTPRP, -0.105. On to RRIRERPPRLPRPRPRPDGEPRP, for which the “shrunken log2 fold change” value was -0.115. As to RRIRARPPRLPRPRPRPCKHPRP, the “shrunken log2 fold change” value was -0.116. For the sequence RRIRFRPPRLPRPRPRPLEFPRP, the “shrunken log2 fold change” value was -0.0464. The result for RRIRMRPPRLPRPRPRPLKNPRP reads -0.0484; that for RRIRDRPPRLPRPRPRPVFPPRP, 0.108; that for RRIRRRPPRLPRPRPRPKHFPRP, 0.3.

As for RRIRWRPPRLPRPRPRPNEYPRP, the “shrunken log2 fold change” value was -0.39.

In the case of RRIRQRPPRLPRPRPRPTFTPRP, the “shrunken log2 fold change” value was -0.222. For the sequence RRIRGRPPRLPRPRPRPCCFPRP, the “shrunken log2 fold change” value worked out at 0.773. To RRIRMRPPRLPRPRPRPSHAPRP belongs 0.282. On to RRIRCRPPRLPRPRPRPGIDPRP, for which the “shrunken log2 fold change” value was 0.0673. To RRIRKRPPRLPRPRPRPMTLPRP belongs -0.0281; to RRIRWRPPRLPRPRPRPITYPRP, -0.828; to RRIRARPPRLPRPRPRPLQQPRP, 0.752. Consider RRIRIRPPRLPRPRPRPRHHPRP, for which the “shrunken log2 fold change” value was -0.408. For the sequence RRIRERPPRLPRPRPRPYCTPRP, the “shrunken log2 fold change” value was -1.13. Take RRIRGRPPRLPRPRPRPHQDPRP: the “shrunken log2 fold change” value stood at 0.165.

Regarding RRIRWRPPRLPRPRPRPDYMPRP, the “shrunken log2 fold change” value is -0.0885. To RRIRARPPRLPRPRPRPCQQPRP belongs -0.00897. The result for RRIRARPPRLPRPRPRPSARPRP reads 0.479; that for RRIRMRPPRLPRPRPRPCTIPRP, -0.263. Turning to RRIRPRPPRLPRPRPRPYIMPRP, the “shrunken log2 fold change” value was -0.976.

In the case of RRIRYRPPRLPRPRPRPNCKPRP, the “shrunken log2 fold change” value was -0.504. The result for RRIRVRPPRLPRPRPRPYKQPRP reads -0.00648; that for RRIRRRPPRLPRPRPRPGRWPRP, 0.591; that for RRIRPRPPRLPRPRPRPLHVPRP, -0.163. To RRIRRRPPRLPRPRPRPSCPPRP belongs 0.941; to RRIRIRPPRLPRPRPRPWEKPRP, -0.00992. As for RRIRIRPPRLPRPRPRPRKHPRP, the “shrunken log2 fold change” value is -0.252. As for RRIRERPPRLPRPRPRPPVIPRP, the “shrunken log2 fold change” value is -0.257.

RRIRKRPPRLPRPRPRPMYMPRP: the “shrunken log2 fold change” value is -0.103. Turning to RRIRTRPPRLPRPRPRPKGVPRP, the “shrunken log2 fold change” value worked out at 0.253.

RRIRSRPPRLPRPRPRPLLTPRP: the “shrunken log2 fold change” value came out at 0.085. For RRIRFRPPRLPRPRPRPWRKPRP, the “shrunken log2 fold change” value is -0.0813.

As to RRIRLRPPRLPRPRPRPLAGPRP, the “shrunken log2 fold change” value stood at 0.0705.

On to RRIRYRPPRLPRPRPRPGVSPRP, for which the “shrunken log2 fold change” value came to 0.0695. To RRIRPRPPRLPRPRPRPQDTPRP belongs -0.229. The result for RRIRCRPPRLPRPRPRPVWMPRP reads -0.179. Consider RRIRCRPPRLPRPRPRPTQHPRP, for which the “shrunken log2 fold change” value came to 0.349. The result for RRIRYRPPRLPRPRPRPSIVPRP reads -0.912; that for RRIRFRPPRLPRPRPRPRMLPRP, 3.84e-05. Consider RRIRRRPPRLPRPRPRPKSVPRP, for which the “shrunken log2 fold change” value came out at 0.0439.

On to RRIRGRPPRLPRPRPRPHRCPRP, for which the “shrunken log2 fold change” value is -0.0209.

For the sequence RRIRMRPPRLPRPRPRPCKQPRP, the “shrunken log2 fold change” value is 0.0203. To RRIRVRPPRLPRPRPRPQFCPRP belongs -0.17.

On to RRIRHRPPRLPRPRPRPTQWPRP, for which the “shrunken log2 fold change” value was 0.0126. To RRIRARPPRLPRPRPRPRGQPRP belongs 0.666; to RRIRGRPPRLPRPRPRPDAAPRP, 3.73; to RRIRGRPPRLPRPRPRPVMRPRP, 0.749. Consider RRIRIRPPRLPRPRPRPNFLPRP, for which the “shrunken log2 fold change” value was -0.677. The result for RRIRKRPPRLPRPRPRPMAAPRP reads 0.751. The result for RRIRWRPPRLPRPRPRPLWAPRP reads 0.417. The result for RRIRGRPPRLPRPRPRPEKQPRP reads 0.034; that for RRIRLRPPRLPRPRPRPISFPRP, -0.158; that for RRIRCRPPRLPRPRPRPYKFPRP, -0.279. In the case of RRIRRRPPRLPRPRPRPVQQPRP, the “shrunken log2 fold change” value came to 0.213.

Consider RRIRLRPPRLPRPRPRPFIFPRP, for which the “shrunken log2 fold change” value is -0.356. Turning to RRIRCRPPRLPRPRPRPPLAPRP, the “shrunken log2 fold change” value was 0.79. The result for RRIRNRPPRLPRPRPRPCPNPRP reads -0.344.

As for RRIRCRPPRLPRPRPRPVDTPRP, the “shrunken log2 fold change” value was -0.0338.

Consider RRIRKRPPRLPRPRPRPQGQPRP, for which the “shrunken log2 fold change” value was -0.00726. To RRIRLRPPRLPRPRPRPPFTPRP belongs 0.11; to RRIRVRPPRLPRPRPRPWYFPRP, -0.619; to RRIRSRPPRLPRPRPRPEIWPRP, 0.456.

For the sequence RRIRKRPPRLPRPRPRPSKFPRP, the “shrunken log2 fold change” value was -0.16. The result for RRIRHRPPRLPRPRPRPLLAPRP reads 0.299. Consider RRIRGRPPRLPRPRPRPNQLPRP, for which the “shrunken log2 fold change” value was 0.0782.

With RRIRWRPPRLPRPRPRPAIHPRP, the “shrunken log2 fold change” value turned out to be 0.039. The result for RRIRSRPPRLPRPRPRPAAYPRP reads 0.269.

As for RRIRNRPPRLPRPRPRPTTWPRP, the “shrunken log2 fold change” value is -0.246. For the sequence RRIRVRPPRLPRPRPRPTGGPRP, the “shrunken log2 fold change” value came to 0.18. Consider RRIRDRPPRLPRPRPRPSEPPRP, for which the “shrunken log2 fold change” value was 0.06.

Consider RRIRYRPPRLPRPRPRPCIVPRP, for which the “shrunken log2 fold change” value was -0.246. To RRIRPRPPRLPRPRPRPQCAPRP belongs 0.167; to RRIRSRPPRLPRPRPRPYDMPRP, -0.122. As to RRIRYRPPRLPRPRPRPIKYPRP, the “shrunken log2 fold change” value is -0.0893. To RRIRLRPPRLPRPRPRPLCGPRP belongs 0.161. On to RRIRHRPPRLPRPRPRPRRVPRP, for which the “shrunken log2 fold change” value is 0.36.

Turning to RRIRNRPPRLPRPRPRPWYEPRP, the “shrunken log2 fold change” value is -0.0232.

With RRIRQRPPRLPRPRPRPVMPPRP, the “shrunken log2 fold change” value was determined as 0.0623. With RRIRQRPPRLPRPRPRPCANPRP, the “shrunken log2 fold change” value was 0.00875. As to RRIRDRPPRLPRPRPRPAYFPRP, the “shrunken log2 fold change” value amounted to 0.128.

For RRIRNRPPRLPRPRPRPQDSPRP, the “shrunken log2 fold change” value is -0.238. In the case of RRIRKRPPRLPRPRPRPENSPRP, the “shrunken log2 fold change” value was -0.131. With RRIRTRPPRLPRPRPRPIFIPRP, the “shrunken log2 fold change” value was -0.383.

Turning to RRIRARPPRLPRPRPRPDDKPRP, the “shrunken log2 fold change” value was -0.112. To RRIRLRPPRLPRPRPRPLQRPRP belongs 0.0926; to RRIRRRPPRLPRPRPRPQPCPRP, -0.101. Consider RRIRCRPPRLPRPRPRPHRDPRP, for which the “shrunken log2 fold change” value is -0.3. The result for RRIRIRPPRLPRPRPRPFLMPRP reads -0.314. For RRIRCRPPRLPRPRPRPQMKPRP, the “shrunken log2 fold change” value is -0.514. RRIRDRPPRLPRPRPRPITWPRP: the “shrunken log2 fold change” value came to 0.098. On to RRIRLRPPRLPRPRPRPPGAPRP, for which the “shrunken log2 fold change” value came out at 0.54. As for RRIRERPPRLPRPRPRPWMNPRP, the “shrunken log2 fold change” value was -0.0137.

Source of the values: the supplement of paper PMC9112550, “Optimization of the antimicrobial peptide Bac7 by deep mutational scanning” (BMC Biology, 2022).
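Also: peptides expressed intracellularly from a pBAD plasmid library in pooled LB shake-flask culture, induced with 0.3% L-arabinose, DNA abundance read by NGS, three biological replicates, DESeq2 with apeglm shrinkage.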
